Results: US20240350646A1, “METHODS AND COMPOSITIONS FOR DELIVERY TO AND ACROSS THE BLOOD BRAIN BARRIER” (NUtech Ventures, priority 2021, published 2024)

Experiments:
[1] = NP characterization: TEM particle diameter, DLS hydrodynamic size, zeta potential; assay type: physicochemical
Protocol: A high voltage transmission electron microscope (TEM) (Tecnai Osiris™, 200 kV) was used to measure particle diameters of PEG diacid coated Gd NPs. A copper grid (PELCO mesh size 400, TED PELLA, INC.) covered with an amorphous carbon membrane was placed onto a filter paper. Then, a sample solution diluted in triply distilled water was dropped over the copper grid by using a micropipette (Eppendorf, 2-20 μL). Dynamic light scattering (DLS) studies of the NPs were conducted using a Malvern Instruments Zetasizer Nano series instrument. Solutions of the NPs were prepared in DPBS (pH 7.4) at a concentration of 0.05 mM. The resulting solutions were filtered with 0.22 μm filters before the measurement. The NP concentration was determined by using an inductively coupled plasma mass spectrometer (ICPMS) (Agilent 7500 cx). To determine this, ˜0.5 mL of the NP solution was taken out and treated with HNO3 to dissolve nanoparticles in the solution completely. A Fourier transform-infrared (FT-IR) (Nicolet AVATAR 380 FT-IR) was used to verify the surface coating. To record the FT-IR absorption spectrum (400-4000 cm^−1), the powder sample was prepared. Peptide attachment to NPs was confirmed using BCA assay. Attaching efficiency was confirmed using the equation, Conjugation Efficiency of peptide (%)=Amount of peptide in NPs/Initial amount of peptide×100.

[2] = MST check of non-specific binding to detergent micelles; details: NP fixed at 1 μM, β-DDM varied; data not shown
Protocol: Human claudin-1 was expressed and purified as reported previously (Vecchio & Stroud, 2019, PNAS USA, 116:17817-24). MST measurements were performed using a Monolith instrument (NanoTemper Technologies). For experiments with human claudin-1, the assay buffer contained 10 mM Tris HCl, pH 8.0, 100 mM NaCl, 4% glycerol, and 0.04% n-Dodecyl-β-D-Maltopyranoside (β-DDM). NPs and peptides were labeled with AF647 prior to MST analysis as described above. For the binding experiments, the concentration of human claudin-1 was varied from 2.2-73,500 nM and the AF647-labeled C1C2-NP was fixed at 70 nM, while the AF647 labeled NPs and AF647 labeled C1C2 peptide were fixed at 1 and 0.3 μM, respectively. Binding of the AF647 labeled C1C2-NP to human claudin-3, -4, and -9 were tested using 0.4-14000 nM, 0.8-28000 nM, and 0.6-20000 nM, respectively; with the AF647 labeled C1C2-NP fixed at 70 nM. This assay buffer was similar, except β-DDM was replaced with 0.1% n-Undecyl-β-D-Maltopyranoside (beta-UDM). […] All experiments were conducted at 23° C. using the nano-red channel of the Monolith instrument and the data were analyzed by using either Monolith analysis software or Graph Pad Prism, version 9 (Graph Pad Software, San Diego, California).

human claudin-1 = molecular target: T1, human claudin-1 (Homo sapiens, UniProt O95832); experiment: In vitro immunofluorescence of NP binding in bEnd.3 cells transfected with human claudin-1 plasmid; assay type: cell-based; details: cells transfected to express human claudin-1; 4 hrs
T1 construct: made in house
T1 sequence (O95832 1-211): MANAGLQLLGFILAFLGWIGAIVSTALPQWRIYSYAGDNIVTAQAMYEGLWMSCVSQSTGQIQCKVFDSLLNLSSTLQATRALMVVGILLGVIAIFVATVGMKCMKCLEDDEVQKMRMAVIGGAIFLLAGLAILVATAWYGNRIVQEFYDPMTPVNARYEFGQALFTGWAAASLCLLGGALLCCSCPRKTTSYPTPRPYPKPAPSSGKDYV
Protocol: (§1) bEnd.3 cells were cultured according to the ATCC culture conditions in DMEM. These cells were subjected to ethanol (50 mM) treatment to induce claudin-1 expression and incubated with C1C2-NP for 4 hrs. For determining attachment of the C1C2-NP to human claudin-1, human claudin-1 encoded PCMV script plasmid was overexpressed in bEnd.3 cells and then incubated with C1C2-NP for 4 hrs.

mouse claudin-1 = molecular target: T2, mouse claudin-1 (Mus musculus, UniProt O88551); experiment: In vitro immunofluorescence of NP binding in bEnd.3 cells (control and ethanol induced); assay type: cell-based; details: 4 hrs
T2 construct: These cells were subjected to ethanol (50 mM) treatment to induce claudin-1 expression; endogenous in cells; host or cells: bEnd.3 mouse brain microvascular endothelial cells
T2 sequence (O88551 1-211): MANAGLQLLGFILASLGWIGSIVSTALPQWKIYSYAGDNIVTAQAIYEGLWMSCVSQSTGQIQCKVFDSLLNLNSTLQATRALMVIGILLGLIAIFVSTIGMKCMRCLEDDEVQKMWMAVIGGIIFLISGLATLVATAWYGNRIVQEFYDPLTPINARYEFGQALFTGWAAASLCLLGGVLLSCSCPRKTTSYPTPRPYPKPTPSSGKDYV
Protocol: as §1

## C1C2-NP: PEG diacid coated ultrasmall Gd NP conjugated with C1C2 peptide SSVSQSTGQIQSKVDSLLNLNSTQATR (SEQ ID NO: 6); claudin-1 targeted (Ac-SSVSQSTGQIQSKVDSLLNLNSTQATR-NH2; also: conjugated to PEG diacid coated ultrasmall Gd nanoparticle)
[1]
  Zeta Potential, mV (with NPs): 7.81 ± 0.38 mV
[1]; DLS, DPBS pH 7.4
  Hydrodynamic size (nm): 14.5 ± 0.13 nm
[2]
  Non-specific binding to β-DDM micelle: No significant binding
Human claudin-1
  Binding to bEnd.3 cells: High NP binding
Mouse claudin-1; claudin-1 induced by ethanol (50 mM)
  Binding to bEnd.3 cells: much higher binding
Mouse claudin-1; control cells, low claudin-1 expression
  Binding to bEnd.3 cells: no binding
